T1: recombinant cynomolgus IL-1β (cynomolgus, UniProt P79182 117-268)
T1 construct: It was biotinylated in the ELISA and in the yeast display experiments; also called Cyno IL-1β; Cyno IL-1beta
T1 sequence (looked up): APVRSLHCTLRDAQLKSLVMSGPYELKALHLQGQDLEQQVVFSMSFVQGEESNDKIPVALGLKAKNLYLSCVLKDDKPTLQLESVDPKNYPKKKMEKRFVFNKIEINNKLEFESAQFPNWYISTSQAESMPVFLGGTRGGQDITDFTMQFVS

T2: recombinant human IL-1α (human, UniProt P01583 113-271)
T2 sequence: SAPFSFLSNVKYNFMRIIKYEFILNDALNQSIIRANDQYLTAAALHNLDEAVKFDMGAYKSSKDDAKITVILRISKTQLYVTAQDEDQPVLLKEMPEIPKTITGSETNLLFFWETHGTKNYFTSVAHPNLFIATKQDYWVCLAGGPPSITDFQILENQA

T3: recombinant cynomolgus IL-1α (cynomolgus, UniProt P79340 113-271)
T3 sequence (looked up): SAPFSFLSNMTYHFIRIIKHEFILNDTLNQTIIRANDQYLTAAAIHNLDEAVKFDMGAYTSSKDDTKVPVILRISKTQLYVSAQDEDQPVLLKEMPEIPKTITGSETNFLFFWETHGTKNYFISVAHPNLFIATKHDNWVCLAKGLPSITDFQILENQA

T4: native human IL-1α present in crude supernatants (human, UniProt P01583 113-271, limits assumed)
T4 sequence (looked up): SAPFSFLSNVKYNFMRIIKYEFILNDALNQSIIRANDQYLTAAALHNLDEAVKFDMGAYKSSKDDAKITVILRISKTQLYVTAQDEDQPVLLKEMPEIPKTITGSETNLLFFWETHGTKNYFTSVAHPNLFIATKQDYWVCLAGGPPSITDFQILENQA


What was measured:
[1] = target: T5, recombinant human IL-1β (human, UniProt P01584 117-269); test: indirect ELISA: mAb captured on goat anti-human IgG, biotinylated IL-1β titrated
T5 construct: It was biotinylated in the ELISA and in the yeast display experiments; also called Hu IL-1beta; huIL-1b
Method: (§1) An indirect ELISA was performed to assess the relative affinity of the affinity matured h1B12.1 mAbs to a human chimeric version of the murine 1B12 mAb. An ELISA plate was coated with goat anti-human IgG (Jackson Immunoresearch cat#109-005-098) at 0.5 ug/mL overnight. The plate was blocked with 5% milk for 1 hour and washed three times with TPBS. Affinity-matured h1B12.1 antibodies and human IgG control (Sigma cat#12511) were incubated on the plate for 30 min at 0.2 μg/mL and then the plates were washed three times. A titration of biotinylated human IL-1β or biotinylated cyno IL-1β was added to the plate, starting at 10 nM and decreasing in concentration following a series of 1:3 dilutions. Binding of biotinylated IL-1β was detected with a 1:10000 dilution of peroxidase-conjugated streptavidin (Jackson Immunoresearch cat#016-030-084) and TMB substrate (Invitrogen). The data were fit in Graphpad prism to determine the EC₅₀ values.

[2] = target: T1, recombinant cynomolgus IL-1β; test: as above
Method: as §1

[3] = target: T5, recombinant human IL-1β; test: cell-based or functional assay
[4] = target: T2, recombinant human IL-1α; test: cell-based or functional assay
[5] = target: T1, recombinant cynomolgus IL-1β; test: cell-based or functional assay
[6] = target: T3, recombinant cynomolgus IL-1α; test: cell-based or functional assay
[7] = target: purified native human IL-1β (human, UniProt P01584 117-269); test: cell-based or functional assay
[8] = target: T4, native human IL-1α present in crude …; test: cell-based or functional assay
[9] = target: T5, recombinant human IL-1β; test: SPR (BIAcore), DVD-Ig captured via goat anti-human IgG Fc
Method: (§2) Goat IgGs specific to human IgG Fc were covalently linked to the carboxy methyl dextran matrix on the CMS biosensor chip via free amine groups using an amine coupling kit and the immobilization wizard option in the Biacore instruments controlling software. Specifically, carboxyl groups of the dextran matrix on the chip were activated with NHS and EDC. Goat anti-human IgG Fc antibodies (25 μg/mL), diluted in 10 mM sodium acetate, pH 4.5, were injected across the activated surface. Once the level of binding response reached the desired value, unreacted groups were deactivated by injection of 1M ethanolamine. For binding of IL-1α & IL-1β to captured Ig, a 1 μg/mL concentration of Ig in HBS-EP+ was injected over the goat anti-human IgG Fc surface at a flow rate of 10 μL/min for 1 minute. The net difference in the baseline signal and the signal after the completion of the Ig injection was taken to represent the amount of bound Ig.
(§3) The potency of the 5 DVD-Igs containing affinity matured h1B12.1 domains to recombinant and native IL-1 antigens was determined using the MRC-5 bioassay as shown in Table 24. The binding kinetics of the DVD-Igs to recombinant human and cynomolgus IL-1α and IL-1β were determined using surface plasmon resonance. In some cases, the off-rate could not be determined as they reached the limit of detection of the instrument.

[10] = target: T2, recombinant human IL-1α; test: as above
Method: as §2, §3

[11] = target: T1, recombinant cynomolgus IL-1β; test: as above
Method: as §2, §3

[12] = target: T3, recombinant cynomolgus IL-1α; test: as above
Method: as §2, §3

EC50 [1]	EC50 [2]	Potency (IC50) pM, MRC-5 bioassay [3]	Potency (IC50) pM, MRC-5 bioassay [4]	Potency (IC50) pM, MRC-5 bioassay [5]	Potency (IC50) pM, MRC-5 bioassay [6]	Potency (IC50) pM, MRC-5 bioassay [7]	Potency (IC50) pM, MRC-5 bioassay [8]	Kd [9]	koff [9]	kon [9]	Kd [10]	koff [10]	kon [10]	Kd [11]	koff [11]	kon [11]	Kd [12]	koff [12]	kon [12]	Binder
31 pM	26 pM																			h1B12-AM1, affinity-matured h1B12.1 IgG1/k mut (234,235) mAb (scFv clone 13) (antibody, V domains shown, also called PR-1354589) VH: EVQLQESGPGLVKPSETLSLTCTVSGFSLSDYGVSWIRQPPGKGLEWIGLIWGSGDTYYNSPLKSRLTISKDNSKSQVSLKLSSVTAADTAVYYCAKQTNIWAYDLYSMDYWGQGTLVTVSS VL: DIQMTQSPSSLSASVGDRVTITCQTSTDIDDDLNWYQQKPGKAPKLLISLASTLRPGVPSRFSGSGSGTDFTFTISSLQPEDFATYYCLQSDRLPLTFGQGTKLEIKR
26 pM	34 pM																			h1B12-AM2, affinity-matured h1B12.1 IgG1/k mut (234,235) mAb (scFv clone 21) (antibody, V domains shown, also called PR-1354591) VH: EVQLQESGPGLVKPSETLSLTCTVSGFSLSEFGVSWIRQPPGKGLEWIGLIWGGGDTYYNSPLKSRLTISKDNSKSQVSLKLSSVTAADTAVYYCAKQRNLWAYDLYGMDYWGQGTLVTVSS VL: DIQMTQSPSSLSASVGDRVTITCQTSQDIDMDLNWYQQKPGKAPKLLISQGSTLWPGVPSRFSGSGSGTDFTFTISSLQPEDFATYYCLQTDSFPLTFGQGTKLEIKR
33 pM	32 pM																			h1B12-AM3, affinity-matured h1B12.1 IgG1/k mut (234,235) mAb (scFv clone 34) (antibody, V domains shown, also called PR-1354592) VH: EVQLQESGPGLVKPSETLSLTCTVSGFSLSDYGVSWIRQPPGKGLEWIGLIWGSGDTYYNSPLKSRLTISKDTSKSQVSLKLSSVTAADTAVYYCAKQTNLWAYDLYSMDYWGQGTLVTVSS VL: DIQMTQSPSSLSASVGDRVTITCQASQDIDDDLNWYQQKPGKAPKLLISLASILRPGVPSRFSGSGSGTDFTFTISSLQPEDFATYYCLQSDSFPLTFGQGTKLEIKR
31 pM	25 pM																			h1B12-AM4, affinity-matured h1B12.1 IgG1/k mut (234,235) mAb (scFv clone A1) (antibody, V domains shown, also called PR-1354594) VH: EVQLQESGPGLVKPSETLSLTCTVSGFSLRDYGVSWIRQPPGKGLEWLGLIWGSGDTYYNSPLKSRLTISKDTSKSQVSLKLSSVTAADTAVYYCAKQTNIWGYDLYGMDYWGQGTLVTVSS VL: DIQMTQSPSSLSASVGDRVTITCQASQDIDMDLNWYQQKPGKAPKLLISQANTLPPGVPSRFSGSGSGTDFTFTISSLQPEDFATYYCLQSDWLPLTFGQGTKLEIKR
		55.9 pM	45.4 pM	3.62 pM	2440 pM	1.64 pM	24.4 pM	0.22 pM	5.1e-06 s⁻¹	2.3e+07 M⁻¹ s⁻¹	21 pM	2.9e-06 s⁻¹	140000 M⁻¹ s⁻¹	1.5 pM	1.7e-05 s⁻¹	1.2e+07 M⁻¹ s⁻¹	2300 pM	0.00023 s⁻¹	100000 M⁻¹ s⁻¹	DVD1-h1B12.13-SS-X3, human anti-IL-1α/β DVD IgG1/k mut (234,235) (bispecific antibody, also called PR-1358316) heavy: not shown light: DIQMTQSPSSLSASVGDRVTITCQTSTDIDDDLNWYQQKPGKAPKLLISLASTLRPGVPSRFSGSGSGTDFTFTISSLQPEDFATYYCLQSDRLPLTFGQGTKLEIKRTVAAPDIQMTQSPSSVSASVGDRVTITCRASQGISSWLAWYQQKPGKAPKLLIYEASNLETGVPSRFSGSGSGSDFTLTISSLQPEDFATYYCQQTSSFLLSFGGGTKVEHKRTVAAPSVFIFPPSDEQLKSGTASVVCLLNNFYPREAKVQWKVDNALQSGNSQESVTEQDSKDSTYSLSSTLTLSKADYEKHKVYACEVTHQGLSSPVTKSFNRGEC
		48.6 pM	42.8 pM	1.86 pM	1640 pM	1.91 pM	72 pM	0.2 pM	5.1e-06 s⁻¹	2.5e+07 M⁻¹ s⁻¹	120 pM	1.6e-05 s⁻¹	140000 M⁻¹ s⁻¹	1.6 pM	1.8e-05 s⁻¹	1.1e+07 M⁻¹ s⁻¹	2000 pM	0.00021 s⁻¹	100000 M⁻¹ s⁻¹	DVD2-h1B12.21-SS-X3, human anti-IL-1α/β DVD IgG1/k mut (234,235) (bispecific antibody, also called PR-1358317) heavy: not shown light: DIQMTQSPSSLSASVGDRVTITCQTSQDIDMDLNWYQQKPGKAPKLLISQGSTLWPGVPSRFSGSGSGTDFTFTISSLQPEDFATYYCLQTDSFPLTFGQGTKLEIKRTVAAPDIQMTQSPSSVSASVGDRVTITCRASQGISSWLAWYQQKPGKAPKLLIYEASNLETGVPSRFSGSGSGSDFTLTISSLQPEDFATYYCQQTSSFLLSFGGGTKVEHKRTVAAPSVFIFPPSDEQLKSGTASVVCLLNNFYPREAKVQWKVDNALQSGNSQESVTEQDSKDSTYSLSSTLTLSKADYEKHKVYACEVTHQGLSSPVTKSFNRGEC
		51.2 pM	44.3 pM	6.56 pM	1920 pM	4.27 pM	57.6 pM	0.5 pM	1.3e-05 s⁻¹	2.6e+07 M⁻¹ s⁻¹	10 pM	1.6e-06 s⁻¹	150000 M⁻¹ s⁻¹	1 pM	1.3e-05 s⁻¹	1.3e+07 M⁻¹ s⁻¹	2400 pM	0.00027 s⁻¹	110000 M⁻¹ s⁻¹	DVD5-h1B12.A3-SS-X3, human anti-IL-1α/β DVD IgG1/k mut (234,235) (bispecific antibody, also called PR-1358321) heavy: not shown light: DIQMTQSPSSLSASVGDRVTITCQASTDIDDDLNWYQQKPGKAPKLLISLGSTLRPGVPSRFSGSGSGTDFTFTISSLQPEDFATYYCLQSDRLPLTFGQGTKLEIKRTVAAPDIQMTQSPSSVSASVGDRVTITCRASQGISSWLAWYQQKPGKAPKLLIYEASNLETGVPSRFSGSGSGSDFTLTISSLQPEDFATYYCQQTSSFLLSFGGGTKVEHKRTVAAPSVFIFPPSDEQLKSGTASVVCLLNNFYPREAKVQWKVDNALQSGNSQESVTEQDSKDSTYSLSSTLTLSKADYEKHKVYACEVTHQGLSSPVTKSFNRGEC
		58.6 pM	38.6 pM	4.02 pM	2580 pM	2.46 pM	50.9 pM	≤ 0.98 pM	≤ 1e-05 s⁻¹	1.1e+07 M⁻¹ s⁻¹	200 pM	3.6e-05 s⁻¹	180000 M⁻¹ s⁻¹	1.8 pM	9.6e-06 s⁻¹	5.3e+06 M⁻¹ s⁻¹	2600 pM	0.00035 s⁻¹	130000 M⁻¹ s⁻¹	DVD4-h1B12.A1-SS-X3, human anti-IL-1α/β DVD IgG1/k mut (234,235) (bispecific antibody, also called PR-1358319) heavy: not shown light: DIQMTQSPSSLSASVGDRVTITCQASQDIDMDLNWYQQKPGKAPKLLISQANTLPPGVPSRFSGSGSGTDFTFTISSLQPEDFATYYCLQSDWLPLTFGQGTKLEIKRTVAAPDIQMTQSPSSVSASVGDRVTITCRASQGISSWLAWYQQKPGKAPKLLIYEASNLETGVPSRFSGSGSGSDFTLTISSLQPEDFATYYCQQTSSFLLSFGGGTKVEHKRTVAAPSVFIFPPSDEQLKSGTASVVCLLNNFYPREAKVQWKVDNALQSGNSQESVTEQDSKDSTYSLSSTLTLSKADYEKHKVYACEVTHQGLSSPVTKSFNRGEC

Source: US20140178389A1 (AbbVie / Abbott, published 2014)
